# From patent US20240327502A1 (Merck Sharp & Dohme, published 2024)
# B1: M3E06 (antibody, V domains shown)
# VH: EVQLVESGGGLVQPGGSLRLSCAASGFTFSSYWMSWVRQAPGKGLEWVANIKQDGSEKYYVDSVKGRFTISRDNAKNSLYLQMNSLRAEDTAVYYCARYYYDSSGYYYYYYYYMDVWGKGTTVTVSS
# VL: not shown
# notes: IgG
# B2: M3A11 (antibody, V domains shown)
# VH: EVQLVESGGGLVQPGGSLRLSCAASGFTFSDYSMNWVRQAPGQGLEWISYISSTGSTIYYADSVRGRFTISRDNAKNSLYLQMNTLRAEDTAVYYCARGKTTVTIWFDPWGQGTLVTVSS
# VL: SYVLTQPPSVSVAPGQTARITCGGNNIGSKSVHWYQQKPGQAPVLVVYDDSDRPSGIPERFSGSNSGNTATLTISRVEAGDEADYYCQVWHSSSDWVFGGGTRLTVL
# notes: IgG
# B3: M3E05 (antibody, V domains shown)
# VH: EVQLVESGGSVIQPGGSLRLSCAASGFSVRTNYMNWVRQAPGKGLEWVSVIYSDGRTYYSDSVKGRFTISRDNSMNNVFLQMNSLRAEDTAVYYCARDPTFYSSSWWYLDHWGQGTQVTVSS
# VL: SYELTQALSVSVARGQTAKITCGGNNIGVRNVHWYQQKPGQAPVLVIYRDNIRPSGIPERFSGSNSGNMAALTISSAQEGDEADYYCQVWDSNTAHVIFGGGTKLTVL
# notes: IgG
# B4: M3A05 (antibody, V domains shown)
# VH: QITLKESGPTLVKPTQTLTLTCTFSGFSLNTGGVSVGWIRQPPGKALEWLALIYWDGDKRYSPSLKSRLTITKDTSKNQVVFTMTNMDPVDTATYYCAHRENSAYIDFWGQGTLVTVSS
# VL: QSVLTQPPSVSAAPGQKVTISCSGSSSNIGNNYVSWYQQLPGAAPKLLIYDNNKRPSGIPDRFSGSKSGTSASLGITGLQTGDEADYYCGTWDSSLSVGFYVFGTGTKVTVL
# notes: IgG
# B5: M3D08 (antibody, V domains shown)
# VH: QVQLQESGPGLVKPSETLSLTCSVSGVSISSHYWSWIRQPAGKGLEWIGRLYTSGTTTYNPSLNSRVTMSVDTTNNRLSLRLTSVTAADTAVYYCARDVRLTVFGALHNWFDPWGQGILVTVSS
# VL: DIQMTQSPSSLSASVGDRVTITCRASQSIGTHLNWYQQQRGRAPKLLVYAASGLQSGVPSRFSGSGSGTYFTLTISSLQPEDFATYYCQQSYSTPSITFGQGSRLDIK
# notes: IgG
# B6: M2C01 (antibody, V domains shown)
# VH: EVQLVESGGDLAKPGGSLRLSCEASGFTFSNAWMSWVRQAPGKGLEWVGQIKPHTDGATTDYAAPVKGRFTISRDDSKSTLYLRMNILRIEDTAMYYCTTGPRLSLMWGQGTRVTVSS
# VL: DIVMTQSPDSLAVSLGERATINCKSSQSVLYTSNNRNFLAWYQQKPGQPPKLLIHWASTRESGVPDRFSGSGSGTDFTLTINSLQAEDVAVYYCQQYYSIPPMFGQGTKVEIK
# notes: IgG
# B7: M2B05 (antibody, V domains shown)
# VH: QVQLQQWGAGLLRPSETLSLTCTVYGGSFGGYHWSWIRQSPGKGLEWIGEIDHGGNTNFNPSLKSRVTISVDRSKKQFSLKLTSVTAADTAVYYCARGFGVVINNWFDPWGQGTLVTVSS
# VL: DIQMTQSPSSLSASVGDRVTITCRASQTINSYLNWYQQKPGKAPTLLIYTVSSLQSGVPSRFSGSGSGTVFSLTISSLQPEDFATYYCQQSYNSPYTFGQGTKLEIK
# notes: IgG
# B8: M3C01 (antibody, V domains shown)
# VH: QLQLQESGPGLVKPSETLSLTCTVSGGSISSSSYFWGWIRQPPGKGLEWIGSVFYSGSTYYNPSLKSRVTISVDTPKNQFSLRLSSVTAADTAVYYCARHSWDRWVYWGQGTLVTVSS
# VL: DIQMTQSPSSVSASVGDRVTITCRASQDISSWLAWYQQKPGKAPKLLIYAASSLQSGVPSRFSGSGSGTDFTLTISSLQPEDFATYYCQQANSFPLTFGGGTKVEIK
# notes: IgG
# Assays:
# [1] = molecular target: T1, Processed stabilized hMPV PreF trimer (115BV) (human metapneumovirus, strain B2); test: BLI, mAb on anti-human Fc sensor
# T1 construct: also called Processed hMPV PreF trimer; processed PreF
# hMPV PostF trimer = molecular target: T2, hMPV PostF trimer (human metapneumovirus, strain B2); test: BLI, mAb on anti-human Fc sensor
# T2 construct: also called MPV PostF (dPFv1)
# [2] = molecular target: T1, Processed stabilized hMPV PreF trimer …; test: BLI, ratio to unprocessed PreF trimer
# [3] = molecular target: T3, Unprocessed hMPV PreF trimer (human metapneumovirus, strain B2); test: BLI, mAb on anti-human Fc sensor
# T3 construct: also called Unprocessed hMPV WT PreF trimer; unprocessed hMPV PreF trimeric antigen
Binder,Octet binding response [1] [nm],Octet binding response (hMPV PostF trimer) [nm],processed/unprocessed PreF trimer binding ratio [2],Octet binding response [3] [nm]
B1,0.0101,0.329,0.18,–
B2,–,0.414,–,–
B3,–,0.509,–,0.126
B4,0.0071,0.229,0.09,–
B5,0.0113,0.307,0.17,–
B6,–,-0.0726,–,0.107
B7,0.542,0.486,–,0.447
B8,–,0.327,–,0.0597
